The chains are these.
B2: S100B (natural protein)
chain: SELEKAMVALIDVFHQYSGREGDKHKLKKSELKELINNELSHFLEEIKEQEVVDKVMETLDNDGDGECDFQEFMAFVAMVTTACHEFFEHE

In experiment [1] the target is B2. Description: NMR titration.
In experiment [2] the target is B2. Description: NMR titration. The source holds these as a separate data set.
Experiment [3] has as its target T1, His6-IC3 (third intracellular loop of the dopamine D2S receptor, R217-Q345) (UniProt P61169-2 217-345).
T1 sequence (looked up): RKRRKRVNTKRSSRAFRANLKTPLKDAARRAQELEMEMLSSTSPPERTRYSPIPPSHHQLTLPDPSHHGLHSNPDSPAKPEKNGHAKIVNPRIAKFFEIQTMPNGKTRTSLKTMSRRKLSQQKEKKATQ
Description: pull-down.

Read-outs that look alike come from different tables or passages of the source.

B1: IC3-C58 (domain or fragment, UniProt P61169-2 288-345, looked up)
chain: SNPDSPAKPEKNGHAKIVNPRIAKFFEIQTMPNGKTRTSLKTMSRRKLSQQKEKKATQ
For the molecule B1, the dissociation constant Kd with S100B [1] worked out at 274 ± 58 µM; with S100B [2], 1 ± 1 µM.
Turning to B2, the binding result in experiment [3] is recorded as “binds”.

The term Kd denotes the equilibrium constant for the complex coming apart. Higher therefore signals lower affinity.

(Values after PMC3196243 (Biochemistry, 2011).)
